The values below come from the supplement of paper PMC5998384.

Data set [1] deals with HeLa Kyoto. Kind of data set: solubility in G1/S (NP-40 vs SDS abundance) (log2 ratio); higher = more soluble. The following applies: cell cycle stage: G1/S.
The subject of data set [2] is HeLa Kyoto. The data set can be described thus: melting temperature (median over replicates), in situ; higher = more thermally stable.
Data set [3] deals with HeLa Kyoto. Kind of data set: solubility change mitosis vs G1/S (difference of NP-40 vs SDS log2 ratios) (log2 ratio difference); higher = more soluble in mitosis.
The test system of data set [4] is HeLa Kyoto. The data set can be described thus: thermal stability score vs G1/S (z-score of summed log2 fold changes over temperatures); higher = more thermally stable than in G1/S.
The mark [5] stands for this setting: cell cycle stage: early G1 (4.5 h after nocodazole release).
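Wherever melting temperature (median over replicates), in situ is given: HeLa Kyoto cells synchronized by double thymidine or nocodazole block, proteins quantified by TMT10plex mass spectrometry, three independent biological replicates.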
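Wherever solubility change mitosis vs G1/S (difference of NP-40 vs SDS log2 ratios) is given: synchronized HeLa Kyoto cells (double thymidine block for G1/S, nocodazole release for mitosis), protein amounts in NP-40 versus SDS lysates quantified by mass spectrometry, three biological replicates.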
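Wherever solubility in G1/S (NP-40 vs SDS abundance) is given: HeLa Kyoto cells arrested at G1/S by double thymidine block, proteins quantified by TMT10plex mass spectrometry in mild NP-40 versus SDS extracts, three biological replicates.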
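Wherever thermal stability score vs G1/S (z-score of summed log2 fold changes over temperatures) is given: synchronized HeLa Kyoto cells, proteins quantified by TMT10plex mass spectrometry, three biological replicates, mitosis taken 0.5 h after nocodazole release, G1/S directly after double thymidine block.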

MMTAG2, sequence (chain, as listed by the source): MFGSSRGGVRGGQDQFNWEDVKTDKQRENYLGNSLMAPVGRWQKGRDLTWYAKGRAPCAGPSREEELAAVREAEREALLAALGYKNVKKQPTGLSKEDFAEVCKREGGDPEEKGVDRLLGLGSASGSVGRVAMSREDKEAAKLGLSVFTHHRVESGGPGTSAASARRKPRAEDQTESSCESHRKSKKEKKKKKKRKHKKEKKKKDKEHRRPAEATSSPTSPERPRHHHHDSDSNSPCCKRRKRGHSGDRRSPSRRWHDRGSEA

For MMP15, the “solubility in G1/S (log2)” value in the data set on HeLa Kyoto [1] was -0.181. In addition, the melting temperature was 54.4 °C in the data set with HeLa Kyoto [2] (cell cycle stage: G1/S) and 55.3 °C with HeLa Kyoto [2] (cell cycle stage: mitosis). Moreover, the “solubility change mitosis (log2)” value with HeLa Kyoto [3] is -0.0164. For the same substance, the thermal stability score in the data set with HeLa Kyoto [4] (setting [5]) is -0.0989; in the data set on HeLa Kyoto [4] (cell cycle stage: mitosis), -0.65.

In the case of “MMQGEAHPSASLIDRTIKMRKETEARKVVLAWGLLNVSMAGMIYTEMTGKLISSYYNVTYWPLWYIELALASLFSLNALFDFWRYFKYTVAPTSLVVSPGQQTLLGLKTAVVQTTPPHDLAATQIPPAPPSPSIQGQSVLSYSPSRSPSTSPKFTTSCMTGYSPQLQGLSSGGSGSYSPGVTYSPVSGYNKLASFSPSPPSPYPTTVGPVESSGLRSRYRSSPTVYNSPTDKEDYMTDLRTLDTFLRSEEEKQHRVKLGSPDSTSPSSSPTFWNYSRSMGDYAQTLKKFQYQLACRSQAPCANKDEADLSSKQAAEEVWARVAMNRQLLDHMDSWTAKFRNWINETILVPLVQEIESVSTQMRRMGCPELQIGEASITSLKQAALVKAPLIPTLNTIVQYLDLTPNQEYLFERIKELSQGGCMSSFRWNRGGDFKGRKWDTDLPTDSAIIMHVFCTYLDSRLPPHPKYPDGKTFTSQHFVQTPNKPDVTNENVFCIYQSAINPPHYELIYQRHVYNLPKGRNNMFHTLLMFLYIIKTKESGMLGRVNLGLSGVNILWIFGE [TMEM209]”, in the data set with HeLa Kyoto [1], the “solubility in G1/S (log2)” value is 0.161. The melting temperature in the data set with HeLa Kyoto [2] (cell cycle stage: G1/S) was found to be 52 °C; with HeLa Kyoto [2] (cell cycle stage: mitosis), 53.2 °C. The “solubility change mitosis (log2)” value in the data set with HeLa Kyoto [3] is -0.145. Besides, the thermal stability score is 0.688 in the data set on HeLa Kyoto [4] (setting [5]) and 3.82 in the data set with HeLa Kyoto [4] (cell cycle stage: mitosis).

With “MMSDASDMLAAALEQMDGIIAGSKALEYSNGIFDCQSPTSPFMGSLRALHLVEDLRGLLEMMETDEKEGLRCQIPDSTAETLVEWLQSQMTNGHLPGNGDVYQERLARLENDKESLVLQVSVLTDQVEAQGEKIRDLEFCLEEHREKVNATEEMLQQELLSRTSLETQKLDLMAEISNLKLKLTAVEKDRLDYEDKFRDTEGLIQEINDLRLKVSEMDSERLQYEKKLKSTKSLMAKLSSMKIKVGQMQYEKQRMEQKWESLKDELASLKEQLEEKESEVKRLQEKLVCKMKGEGVEIVDRDIEVQKMKKAVESLMAANEEKDRKIEDLRQCLNRYKKMQDTVVLAQGKDGEYEELLNSSSISSLLDAQGFSDLEKSPSPTPVMGSPSCDPFNTSVPEEFHTTILQVSIPSLLPATVSMETSEKSKLTPKPETSFEENDGNIILGATVDTQLCDKLLTSSLQKSSSLGNLKKETSDGEKETIQKTSEDRAPAESRPFGTLPPRPPGQDTSMDDNPFGTRKVRSSFGRGFFKIKSNKRTASAPNLAETEKETAEHLDLAGASSRPKDSQRNSPFQIPPPSPDSKKKSRGIMKLFGKLRRSQSTTFNPDDMSEPEFKRGGTRATAGPRLGWSRDLGQSNSDLDMPFAKWTKEQVCNWLMEQGLGSYLNSGKHWIASGQTLLQASQQDLEKELGIKHSLHRKKLQLALQALGSEEETNHGKLDFNWVTRWLDDIGLPQYKTQFDEGRVDGRMLHYMTVDDLLSLKVVSVLHHLSIKRAIQVLRINNFEPNCLRRRPSDENTIAPSEVQKWTNHRVMEWLRSVDLAEYAPNLRGSGVHGGLMVLEPRFNVETMAQLLNIPPNKTLLRRHLATHFNLLIGAEAQHQKRDAMELPDYVLLTATAKVKPKKLAFSNFGNLRKKKQEDGEEYVCPMELGQASGSASKKGFKPGLDMRLYEEDDLDRLEQMEDSEGTVRQIGAFSEGINNLTHMLKEDDMFKDFAARSPSASITDEDSNV [PPFIBP1]”, the “solubility in G1/S (log2)” value with HeLa Kyoto [1] worked out at 0.425. The melting temperature is 49.4 °C in the data set with HeLa Kyoto [2] (cell cycle stage: G1/S) and 49 °C in the data set on HeLa Kyoto [2] (cell cycle stage: mitosis). The “solubility change mitosis (log2)” value in the data set with HeLa Kyoto [3] is -0.0985. The thermal stability score amounted to 0.0729 with HeLa Kyoto [4] (setting [5]) and 0.352 with HeLa Kyoto [4] (cell cycle stage: mitosis).

For “MMSQSSGSGDGNDDEATTSKDGGFSSPSPSAAAAAQEVRSATDGNTSTTPPTSAKKRKLNSSSSSSSNSSNEREDFDSTSSSSSTPPLQPRDSASPSTSSFCLGVSVAASSHVPIQKKLRFEDTLEFVGFDAKMAEESSSSSSSSSPTAATSQQQQLKNKSILISSVASVHHANGLAKSSTTVSSFANSKPGSAKKLVIKNFKDKPKLPENYTDETWQKLKEAVEAIQNSTSIKYNLEELYQAVENLCSYKISANLYKQLRQICEDHIKAQIHQFREDSLDSVLFLKKIDRCWQNHCRQMIMIRSIFLFLDRTYVLQNSMLPSIWDMGLELFRAHIISDQKVQNKTIDGILLLIERERNGEAIDRSLLRSLLSMLSDLQIYQDSFEQRFLEETNRLYAAEGQKLMQEREVPEYLHHVNKRLEEEADRLITYLDQTTQKSLIATVEKQLLGEHLTAILQKGLNNLLDENRIQDLSLLYQLFSRVRGGVQVLLQQWIEYIKAFGSTIVINPEKDKTMVQELLDFKDKVDHIIDICFLKNEKFINAMKEAFETFINKRPNKPAELIAKYVDSKLRAGNKEATDEELEKMLDKIMIIFRFIYGKDVFEAFYKKDLAKRLLVGKSASVDAEKSMLSKLKHECGAAFTSKLEGMFKDMELSKDIMIQFKQYMQNQNVPGNIELTVNILTMGYWPTYVPMEVHLPPEMVKLQEIFKTFYLGKHSGRKLQWQSTLGHCVLKAEFKEGKKELQVSLFQTLVLLMFNEGEEFSLEEIKQATGIEDGELRRTLQSLACGKARVLAKNPKGKDIEDGDKFICNDDFKHKLFRIKINQIQMKETVEEQASTTERVFQDRQYQIDAAIVRIMKMRKTLSHNLLVSEVYNQLKFPVKPADLKKRIESLIDRDYMERDKENPNQYNYIA [CUL4B]”, the “solubility in G1/S (log2)” value with HeLa Kyoto [1] was determined as 0.0519. For the same substance, the melting temperature is 54.6 °C with HeLa Kyoto [2] (cell cycle stage: G1/S) and 54.4 °C in the data set with HeLa Kyoto [2] (cell cycle stage: mitosis). Besides, the “solubility change mitosis (log2)” value with HeLa Kyoto [3] was -0.261. Moreover, the thermal stability score with HeLa Kyoto [4] (setting [5]) is -1.29; in the data set with HeLa Kyoto [4] (cell cycle stage: mitosis), -1.57.

As to MMTAG2, the “solubility in G1/S (log2)” value in the data set on HeLa Kyoto [1] was -1.03. Further, the melting temperature in the data set on HeLa Kyoto [2] (cell cycle stage: G1/S) turned out to be 53 °C; with HeLa Kyoto [2] (cell cycle stage: mitosis), 51.3 °C. Besides, in the data set on HeLa Kyoto [3], the “solubility change mitosis (log2)” value turned out to be 0.48. Further, the results for the thermal stability score in the data set with HeLa Kyoto [4] (setting [5]) and in the data set on HeLa Kyoto [4] (cell cycle stage: mitosis) were -3.08 and -5.63, respectively.
